Experimental data reported in patent US20160194394A1 (GOVERNING COUNCIL OF THE UNIVERSITY OF TORONTO, published 2016).
Substitutions are numbered along the chain they refer to.

B1: B8 (Fab)
light: DIQMTQSPSSLSASVGDRVTITCRASQSVSSAVAWYQQKPGKAPKLLIYSASSLYSGVPSRFSGSRSGTDFTLTISSLQPEDFATYYCQQSSYSLITFGQGTKVEIKRTVAAPSVFIFPPSDSQLKSGTASVVCLLNNFYPREAKVQWKVDNALQSGNSQESVTEQDSKDSTYSLSSTLTLSKADYEKHKVYACEVTHQGLSSPVTKSFNRGECGGS
heavy: EVQLVESGGGLVQPGGSLRLSCAASGFNISSYYIHWVRQAPGKGLEWVASISSSYGYTYYADSVKGRFTISADTSKNTAYLQMNSLRAEDTAVYYCARPWSHYSSGAYWHPWSGHALDYWGQGTLVTVSSASTKGPSVFPLAPSSKSTSGGTAALGCLVKDYFPEPVTVSWNSGALTSGVHTFPAVLQSSGLYSLSSVVTVPSSSLGTQTYICNVNHKPSNTKVDKKVEPKSC
notes: selection round 2; also called Fzd7-R2-B8
B2: D6 (Fab)
light: B1 light with S91F, S92Y
heavy: EVQLVESGGGLVQPGGSLRLSCAASGFNISYSSMHWVRQAPGKGLEWVASIYSSYSYTSYADSVKGRFTISADTSKNTAYLQMNSLRAEDTAVYYCARSYGPWAPGWAAYWGGYGMDYWGQGTLVTVSSASTKGPSVFPLAPSSKSTSGGTAALGCLVKDYFPEPVTVSWNSGALTSGVHTFPAVLQSSGLYSLSSVVTVPSSSLGTQTYICNVNHKPSNTKVDKKVEPKSC
notes: selection round 2; also called Fzd7-R2-D6
B3: D5 (Fab)
light: DIQMTQSPSSLSASVGDRVTITCRASQSVSSAVAWYQQKPGKAPKLLIYSASSLYSGVPSRFSGSRSGTDFTLTISSLQPEDFATYYCQQAYYLITFGQGTKVEIKRTVAAPSVFIFPPSDSQLKSGTASVVCLLNNFYPREAKVQWKVDNALQSGNSQESVTEQDSKDSTYSLSSTLTLSKADYEKHKVYACEVTHQGLSSPVTKSFNRGECGGS
heavy: EVQLVESGGGLVQPGGSLRLSCAASGFNIYYSSIHWVRQAPGKGLEWVASIYPSSGYTYYADSVKGRFTISADTSKNTAYLQMNSLRAEDTAVYYCARWAPHSSSWWSVYGWSAWAFDYWGQGTLVTVSSASTKGPSVFPLAPSSKSTSGGTAALGCLVKDYFPEPVTVSWNSGALTSGVHTFPAVLQSSGLYSLSSVVTVPSSSLGTQTYICNVNHKPSNTKVDKKVEPKSC
notes: selection round 2; also called Fzd7-R2-D5
B4: H11 (Fab)
light: B3 light with A91Y, Y92S, Y93G, L94P
heavy: EVQLVESGGGLVQPGGSLRLSCAASGFNISSSYIHWVRQAPGKGLEWVAYIYPYYSYTYYADSVKGRFTISADTSKNTAYLQMNSLRAEDTAVYYCARSVTYHSSGWVPPWYWGYAFDYWGQGTLVTVSSASTKGPSVFPLAPSSKSTSGGTAALGCLVKDYFPEPVTVSWNSGALTSGVHTFPAVLQSSGLYSLSSVVTVPSSSLGTQTYICNVNHKPSNTKVDKKVEPKSC
notes: selection round 2; also called Fzd7-R2-H11
B5: C8 (Fab)
light: DIQMTQSPSSLSASVGDRVTITCRASQSVSSAVAWYQQKPGKAPKLLIYSASSLYSGVPSRFSGSRSGTDFTLTISSLQPEDFATYYCQQYSPSSFLITFGQGTKVEIKRTVAAPSVFIFPPSDSQLKSGTASVVCLLNNFYPREAKVQWKVDNALQSGNSQESVTEQDSKDSTYSLSSTLTLSKADYEKHKVYACEVTHQGLSSPVTKSFNRGECGGS
heavy: EVQLVESGGGLVQPGGSLRLSCAASGFNIYYSYIHWVRQAPGKGLEWVASISSSSGYTSYADSVKGRFTISADTSKNTAYLQMNSLRAEDTAVYYCARSYGYYYYFYYYGGMDYWGQGTLVTVSSASTKGPSVFPLAPSSKSTSGGTAALGCLVKDYFPEPVTVSWNSGALTSGVHTFPAVLQSSGLYSLSSVVTVPSSSLGTQTYICNVNHKPSNTKVDKKVEPKSC
notes: selection round 2; also called Fzd7-R2-C8
B6: D2 (Fab)
light: B5 light with Y91S, S92Y, P93S, S94G, S95W, F96G, L97P, I98F
heavy: EVQLVESGGGLVQPGGSLRLSCAASGFNISSSYIHWVRQAPGKGLEWVASISSSSSYTYYADSVKGRFTISADTSKNTAYLQMNSLRAEDTAVYYCARSAYPFSWSYPSYVGYYSGLDYWGQGTLVTVSSASTKGPSVFPLAPSSKSTSGGTAALGCLVKDYFPEPVTVSWNSGALTSGVHTFPAVLQSSGLYSLSSVVTVPSSSLGTQTYICNVNHKPSNTKVDKKVEPKSC
notes: selection round 2; also called Fzd7-R2-D2
B7: C11 (Fab)
light: DIQMTQSPSSLSASVGDRVTITCRASQSVSSAVAWYQQKPGKAPKLLIYSASSLYSGVPSRFSGSRSGTDFTLTISSLQPEDFATYYCQQGHYYPYYLFTFGQGTKVEIKRTVAAPSVFIFPPSDSQLKSGTASVVCLLNNFYPREAKVQWKVDNALQSGNSQESVTEQDSKDSTYSLSSTLTLSKADYEKHKVYACEVTHQGLSSPVTKSFNRGECGGS
heavy: EVQLVESGGGLVQPGGSLRLSCAASGFNIYYSYMHWVRQAPGKGLEWVASIYSYSGYTYYADSVKGRFTISADTSKNTAYLQMNSLRAEDTAVYYCARSVWGYPYGMDYWGQGTLVTVSSASTKGPSVFPLAPSSKSTSGGTAALGCLVKDYFPEPVTVSWNSGALTSGVHTFPAVLQSSGLYSLSSVVTVPSSSLGTQTYICNVNHKPSNTKVDKKVEPKSC
notes: selection round 2; also called Fzd7-R2-C11
B8: A10 (Fab, V domains shown)
VH: EVQLVESGGGLVQPGGSLRLSCAASGFNFSSSSIHWVRQAPGKGLEWVAYIYPYYGYTYYADSVKGRFTISADTSKNTAYLQMNSLRAEDTAVYYCARWVVAGHYGMDYWGQGTLVTVSS
VL: DIQMTQSPSSLSASVGDRVTITCRASQSVSSAVAWYQQKPGKAPKLLIYSASSLYSGVPSRFSGSRSGTDFTLTISSLQPEDFATYYCQQSYWPGWPITFGQGTKVEIKR
notes: selection round 3; also called Fzd7-R3-A10
B9: B12 (Fab, V domains shown)
VH: EVQLVESGGGLVQPGGSLRLSCAASGFNLSYSYMHWVRQAPGKGLEWVASISSSYGYTYYADSVKGRFTISADTSKNTAYLQMNSLRAEDTAVYYCARAAGPYWYSYWYSAMDYWGQGTLVTVSS
VL: DIQMTQSPSSLSASVGDRVTITCRASQSVSSAVAWYQQKPGKAPKLLIYSASSLYSGVPSRFSGSRSGTDFTLTISSLQPEDFATYYCQQSSYSLITFGQGTKVEIKR
notes: selection round 2; also called Fzd7-R2-B12

What follows are binders tested against T1, recombinant Frizzled receptor 7 (FZD7) cysteine-rich domain (CRD) fused to the Fc region of human IgG (human, UniProt O75084 33-185) (assay: ELISA, 1ug/ml (20nM) Fab).
Method: (§1) FIG. 2B is a table depicting the binding of purified Fabs to purified FZD7-Fc measured by ELISA. Fabs purified from 25 ml bacterial cultures were assayed for binding to FZD7-Fc fusion protein (R&D systems) and Fc protein. ELISA plates (384 well) were coated with 2 ug/ml of protein in PBS overnight at four degrees. Wells were blocked with 0.5% BSA/PBS for 1 hour at room temperature, washed three times with 0.05% Tween20/PBS (wash buffer), and then primary dilutions of Fabs in 0.5% BSA/0.05% Tween20/PBS (dilution buffer) were added at indicated concentrations. Fabs were incubated for 1 hour at room temperature, wells were washed six times, and anti-FLAG-HRP (Sigma) was added at 1:5000 in dilution buffer. Secondary antibody was incubated for 45 minutes at room temperature, and wells were washed six times and developed with TMB substrate with an acid stop. The absorbance at 450 nm was read. n.t.=not tested.

OD 450	Binder
0.24	B1
2.98	B2
2.65	B3
3.18	B4
0.55	B5
0.5	B6
0.24	B7

These binders were tested against T2, Fc control protein (assay: ELISA, 1ug/ml (20nM) Fab).
T2 construct: also called Fc protein; control Fc protein
Method: as §1

OD 450	Binder
0.05	B1
0.06	B2
0.06	B3
0.05	B4
0.05	B5
0.06	B6
0.07	B7

The binders below were run against T1, recombinant Frizzled receptor 7 (FZD7) … (assay: ELISA, 10ug/ml (200nM) Fab).
Method: as §1

OD 450	Binder
1.16	B1
3.09	B2
3.21	B3
3.23	B4
1.36	B5
1.6	B6
1.09	B7

Each binder was assayed against T2, Fc control protein (assay: ELISA, 10ug/ml (200nM) Fab).
Method: as §1

OD 450	Binder
0.05	B1
0.12	B2
0.17	B3
0.06	B4
0.09	B5
0.05	B6
0.06	B7

The binders below were run against T2, Fc control protein (assay: ELISA, 1ug/ml (20nM) Fab [cont'd]).
Method: as §1

OD 450	Binder
0.05	B8
0.05	B9

These binders were tested against T2, Fc control protein (assay: ELISA, 10ug/ml (200nM) Fab [cont'd]).
Method: as §1

OD 450	Binder
0.05	B8
0.06	B9

These binders were tested against T3, FZD7 receptor expressed on cells (full-length) (UniProt O75084 33-574, limits assumed) (assay: flow cytometry, 200 nM Fab, MDA MB 231).
T3 construct: whole, on cells; MDA MB 231 cells may carry other Frizzled receptors too; also called full-length FZD7 receptor; endogenous receptor on MDA MB 231 cells
Method: (§2) FIG. 3 is a table depicting the binding of the purified Fabs to cells expressing FZD7 (flow cytometry). Small scale Fabs were assayed for binding to full-length FZD7 receptor to an over-expression line in MDA MB 231 cells. In parallel, Fabs were assayed for binding to endogenous receptor expressed on the MDA MB 231 cells. Cells were harvested using an EDTA solution, blocked in 2% FBS/PBS (stain buffer), and stained with 200 nM Fab for 30 min on ice. Cells were washed two times with stain buffer and incubated with anti-F(ab′)₂-APC secondary antibody (Jackson Immuno) at 1:1000 for 15 minutes on ice. All antibodies were diluted in stain buffer. Cells were washed three times with stain buffer and then fixed with 1% paraformaldehye for analysis by flow cytometry. […] The percent of the cell population within the positive gates is indicated.

% population within the positive gate	Binder
2.8%	B1
35.3%	B2
3.9%	B3
2.7%	B5
0.8%	B6
1%	B7

These binders were tested against T3, FZD7 receptor expressed on cells … (assay: flow cytometry, 200 nM Fab, MDA MB 231 [cont'd]).
Method: as §2

% population within the positive gate	Binder
0.9%	B9

These binders were tested against T3, FZD7 receptor expressed on cells … (assay: flow cytometry, 200 nM Fab, FZD7 over-expression line (MDA MB 231)).
Method: as §2

% population within the positive gate	Binder
80.9%	B1
84.3%	B2
88.1%	B3
83.5%	B5
75.2%	B6
42%	B7

What follows are binders tested against T3, FZD7 receptor expressed on cells … (assay: flow cytometry, 200 nM Fab, FZD7 over-expression line (MDA MB 231) [cont'd]).
Method: as §2

% population within the positive gate	Binder
74.6%	B9
